# Data reported in patent US20220275092A1 (F STAR THERAPEUTICS, published 2022).
# T1: mouse LAG-3 (mouse, UniProt Q61790 24-442, limits assumed)
# T1 construct: also called mLAG-3
# T1 sequence (looked up): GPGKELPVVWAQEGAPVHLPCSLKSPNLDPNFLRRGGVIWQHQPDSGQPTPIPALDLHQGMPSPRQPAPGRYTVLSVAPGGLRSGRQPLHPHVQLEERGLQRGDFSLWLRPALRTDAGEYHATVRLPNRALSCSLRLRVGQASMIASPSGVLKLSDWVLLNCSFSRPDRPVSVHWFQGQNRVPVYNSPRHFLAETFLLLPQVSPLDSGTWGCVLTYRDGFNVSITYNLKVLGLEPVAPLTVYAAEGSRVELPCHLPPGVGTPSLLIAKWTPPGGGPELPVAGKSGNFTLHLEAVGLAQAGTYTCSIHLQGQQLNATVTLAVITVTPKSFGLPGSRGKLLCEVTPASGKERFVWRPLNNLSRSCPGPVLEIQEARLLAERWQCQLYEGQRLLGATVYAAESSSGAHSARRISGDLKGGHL
# Tests used:
# mouse PD-L1 = target: T2, mouse PD-L1 (mouse, UniProt Q9EP73 19-239, limits assumed); assay: Biacore (SPR)
# T2 construct: also called mPD-L1
# mouse LAG-3 = target: T1, mouse LAG-3; assay: Biacore (SPR)
# T2 sequence (Q9EP73 19-239 limits assumed): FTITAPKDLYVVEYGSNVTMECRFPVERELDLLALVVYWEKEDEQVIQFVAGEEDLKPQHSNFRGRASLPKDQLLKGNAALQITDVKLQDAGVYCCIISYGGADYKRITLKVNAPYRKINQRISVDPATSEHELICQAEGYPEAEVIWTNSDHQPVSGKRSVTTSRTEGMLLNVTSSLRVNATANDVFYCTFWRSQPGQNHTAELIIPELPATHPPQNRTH
binder,measurement,setting,value
"anti-mouse LAG-3/PD-L1 mAb^2 FS18-7-108-29/S1 (with LALA mutation) (bispecific antibody, V domains shown, also called mouse surrogate mAb^2; mLAG-3/PD-L1) VH: not shown VL: DIQMTQSPSSLSASVGDRVTITCRASQDVSTAVAWYQQKPGKAPKLLIYSASFLYSGVPSRFSGSGSGTDFTLTISSLQPEDFATYYCQQYLFTPPTFGQGTKVEIKR","Biacore binding affinity, fold higher than the binding of FS118 to hPD-L1",mouse PD-L1,~10 fold
same,"Biacore binding affinity, fold lower than the binding of FS118 to hLAG-3",mouse LAG-3,~20 fold
